PMC12122834

Legend:
Experiment in all cases: EMSA
DinG = biological target: T1, DinG (Escherichia coli, UniProt P27296 1-716)
T1 sequence: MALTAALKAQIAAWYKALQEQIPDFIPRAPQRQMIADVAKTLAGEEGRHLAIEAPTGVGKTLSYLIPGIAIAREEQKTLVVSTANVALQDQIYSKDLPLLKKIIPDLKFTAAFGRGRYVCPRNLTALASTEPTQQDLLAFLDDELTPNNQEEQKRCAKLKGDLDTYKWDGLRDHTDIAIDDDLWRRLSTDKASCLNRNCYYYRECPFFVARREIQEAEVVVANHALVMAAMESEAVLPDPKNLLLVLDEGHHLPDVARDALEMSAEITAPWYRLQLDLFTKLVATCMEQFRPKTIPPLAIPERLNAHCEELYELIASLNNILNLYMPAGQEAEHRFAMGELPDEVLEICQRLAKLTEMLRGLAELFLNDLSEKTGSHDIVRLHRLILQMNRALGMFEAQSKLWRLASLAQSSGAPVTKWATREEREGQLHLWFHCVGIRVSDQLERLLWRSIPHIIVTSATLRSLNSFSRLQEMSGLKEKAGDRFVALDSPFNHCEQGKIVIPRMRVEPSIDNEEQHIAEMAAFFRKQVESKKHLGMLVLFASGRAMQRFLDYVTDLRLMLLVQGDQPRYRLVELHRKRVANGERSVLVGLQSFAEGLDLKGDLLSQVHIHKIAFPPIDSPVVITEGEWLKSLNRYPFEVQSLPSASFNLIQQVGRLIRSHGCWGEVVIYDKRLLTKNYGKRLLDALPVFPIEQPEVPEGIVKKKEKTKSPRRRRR

SSB = SSB (Escherichia coli, UniProt P0AGE0 2-178)
SSB deltaC1 = SSB deltaC1 (Escherichia coli, UniProt P0AGE0 2-177, del178-178)
DinG;SSB = DinG;SSB (Escherichia coli;Escherichia coli, UniProt P27296;P0AGE0 1-716;2-178, |)
[1] = biological target: YoaA;chi R128A (HolC R128A) (Escherichia coli;Escherichia coli, UniProt P76257;P28905 1-636;1-147, |R128A)
YoaA;chi (HolC);SSB = YoaA;chi (HolC);SSB (Escherichia coli;Escherichia …, UniProt P76257;P28905;P0AGE0 1-636;1-147;2-178, ||)
YoaA;chi (HolC) = YoaA;chi (HolC) (Escherichia coli;Escherichia coli, UniProt P76257;P28905 1-636;1-147, |)

Measured: binding result

B1: ssT65 (S21) (ssDNA)
DNA: TTTTTTTTTTTTTTTTTTTTTTTTTTTTTTTTTTTTTTTTTTTTTTTTTTTTTTTTTTTTTTTTT
binds: all assays above
